7 substances from patent publication US20240238451A1 can be followed below.

Experiment in all cases: cell-based or functional assay
Assay [1] concerns the target EGFP [GFP: P42212].
The target of assay [2] is ALFA-tagged GAL4-VP16.
Assay [3] deals with mCherry.

Substance Gluc-biNIR-FbGFP fusion displayed a reduction of secreted Gluc signal with mTagBFP2 instead of EGFP (HeLa) in assay [1] of 78%.
In assay [1], NIR-FbGFP-GAL4 fusion had a decrease of Gluc bioluminescent signal with mTagBFP2 instead of EGFP (GAL4/UAS reporter, HeLa) of 25 fold and a reduction of mCherry reporter level in the absence of EGFP (pUAS-mCherry reporter) of 3 fold.
In assay [2], NIR-FbGFP-NbALFA (bispecific antibody) had a reduction of Gluc signal without EGFP against EGFP-expressing cells (ALFA-GAL4, pUAS-Gluc, HeLa) of 75%.
In assay [1], “NIR-FbmCherry-NbGFP fusion (bispecific antibody)” showed a reduction in EGFP fluorescence in the absence of mCherry of 60%.
For biNIR-FbGFP-GAL4, the decrease of Gluc signal with mTagBFP2 instead of EGFP (GAL4/UAS reporter, HeLa) in assay [1] was found to be 50 fold.
In assay [2], “biNIR-FbGFP-NbALFA (bispecific antibody)” had a reduction of Gluc signal in the absence of EGFP (ALFA-GAL4, pUAS-Gluc, HeLa) of 85%.
In the case of “bispecific NIR-FbGFP-NIR-FbmCherry fusion (bispecific antibody)”, the drop of NIR fluorescence when only mCherry (no EGFP) is co-expressed in assay [1] came out at 10 fold. Moreover, in assay [3], the drop of NIR fluorescence when only EGFP (no mCherry) is co-expressed turned out to be 10 fold.
